Test results as given in publication PMC5297747, “Pnserpin: A Novel Serine Protease Inhibitor from Extremophile Pyrobaculum neutrophilum” (International Journal of Molecular Sciences, 2017).

B1: PnCHT, chymotrypsin-like serine protease of Pyrobaculum neutrophilum (enzyme, UniProt B1YBJ2 1-289, looked up)
chain: MDLSGLVEKVARSVVGVAARGVGAVGEGFGSAFAIDRGVYATAYHVVAQAGEVALITPEGEVADAVVAAADPAEDLAILYSDLYAVPLSLGSALRLRVGQGVVAVGFPLALLDKPTATFGIVSAVGRSLRAGDRFFEYLVQTDAAINPGNSGGPLVNLSGEAVGVCSAVIAGAQGLGFAVPIDLVRIMYQMVKRYGRYVRPALGVYVVALNKALKALYGLPTDRGLLVVDVVPSSPAEEMGIARGDILTKVDGREVANVFELRLLIGEALIQGRTPRIEVIRGGRRIEL
notes: chymotrypsin-like serine protease of Pyrobaculum neutrophilum, GenBank ACB40794.1; full length gene synthesized and cloned into pET-28a(+); printed molecular weight 36 kD; source: E. coli BL21 (DE3) CodonPlus, purified (nickel-chelating chromatography)
B2: subtilisin Carlsberg (enzyme, UniProt P00780 106-379, looked up)
chain: AQTVPYGIPLIKADKVQAQGFKGANVKVAVLDTGIQASHPDLNVVGGASFVAGEAYNTDGNGHGTHVAGTVAALDNTTGVLGVAPSVSLYAVKVLNSSGSGSYSGIVSGIEWATTNGMDVINMSLGGASGSTAMKQAVDNAYAKGVVVVAAAGNSGSSGNTNTIGYPAKYDSVIAVGAVDSNSNRASFSSVGAELEVMAPGAGVYSTYPTNTYATLNGTSMASPHVAGAAALILSKHPNLSASQVRNRLSSTATYLGSSFYYGKGLINVEAAAQ
notes: subtilisin Carlsberg; printed molecular weight 27 kD; also called SUC
B3: proteinase k (enzyme, UniProt P06873 106-384, looked up)
chain: AAQTNAPWGLARISSTSPGTSTYYYDESAGQGSCVYVIDTGIEASHPEFEGRAQMVKTYYYSSRDGNGHGTHCAGTVGSRTYGVAKKTQLFGVKVLDDNGSGQYSTIIAGMDFVASDKNNRNCPKGVVASLSLGGGYSSSVNSAAARLQSSGVMVAVAAGNNNADARNYSPASEPSVCTVGASDRYDRRSSFSNYGSVLDIFGPGTSILSTWIGGSTRSISGTSMATPHVAGLAAYLMTLGKTTAASACRYIADTANKGDLSNIPFGTVNLLAYNNYQA
notes: proteinase K; printed molecular weight 28 kD; also called PRK
B4: Pnserpin (natural protein, Pyrobaculum neutrophilum, UniProt B1YBN4 1-393, looked up)
chain: MRLWALLPVTLALVVLLIFIVSLKEASTHSPPTSHTSAPAPLESGSYGDFAVSFYKRIALERLRENLVLSPYSVYKAFAMAYAGAAGETREEIGRVFGFGDDVCALAQAGRGVEEAVAAWVQLGFPLREEYERELSCLGAELRRVDFAERSALVEINRWIEEKTRGYVKDLIPTDYPRSQDIRVVLTSALFFNGSWWPLQFGRIGKREFQGVGPVEFMKLDLGSCVPSLRGRVSADLTVVELRFENTDVAMYVIMPKSLEDYVKGLTYEKLKRDITELPDEIVAVTMPLFTAEFKDSLKKVLIDIGIRSAFDKTRANFTRMSPIRIYIDEVFHGAYIKADEKGVVATAATAVVFVPVCAKVGGMEVVIDRPFLFVLADRRDGTIYFIGHVVKP

Legend:
Pnserpin [1] = target: B4; assay: progress curve of protease inhibition; 40 °C; buffer B (100 mM HEPES-NaOH pH 7.5, 200 mM NaCl, 10 mM CaCl2, 0.01% triton X-100, 0.1% glycerol); 1 mM Suc-AAPF-pNA or MeO-SucAAPV-pNA as substrate; various concentrations of Pnserpin; absorption at 410 nm; kass = kunc × (1 + [S]/KM); conditions: both partners purified
Pnserpin [2] = target: B4; assay: progress curve of protease inhibition; 80 °C; buffer B; 1 mM Suc-AAPF-pNA as substrate; various concentrations of Pnserpin; absorption at 410 nm; kass = kunc × (1 + [S]/KM); conditions: both partners purified
subtilisin Carlsberg = target: B2; assay: cell-based or functional assay
[3] = target: bovine pancreatic trypsin (bovine); assay: cell-based or functional assay
bovine plasma thrombin = bovine plasma thrombin (bovine); assay: cell-based or functional assay
[4] = target: B1; assay: cell-based or functional assay
proteinase k = target: B3; assay: cell-based or functional assay
[5] = target: porcine pancreatic elastase (porcine, UniProt P00772 27-266); assay: cell-based or functional assay
porcine pancreatic elastase, sequence (P00772 27-266): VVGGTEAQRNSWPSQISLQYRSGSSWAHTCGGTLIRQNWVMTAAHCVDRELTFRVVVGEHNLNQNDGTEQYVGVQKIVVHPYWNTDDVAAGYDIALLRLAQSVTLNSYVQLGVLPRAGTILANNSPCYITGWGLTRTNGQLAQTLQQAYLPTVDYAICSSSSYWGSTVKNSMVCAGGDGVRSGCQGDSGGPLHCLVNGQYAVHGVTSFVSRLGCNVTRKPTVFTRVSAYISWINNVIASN

bovine pancreatic trypsin (bovine), sequence (P00760 24-246): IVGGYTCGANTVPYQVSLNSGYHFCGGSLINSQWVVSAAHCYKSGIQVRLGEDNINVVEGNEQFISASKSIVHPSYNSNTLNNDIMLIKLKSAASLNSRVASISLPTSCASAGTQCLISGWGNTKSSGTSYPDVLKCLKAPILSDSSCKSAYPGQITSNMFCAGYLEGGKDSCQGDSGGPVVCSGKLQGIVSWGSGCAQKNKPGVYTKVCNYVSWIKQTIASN

## B1
Pnserpin [1]
  kon: 39000 M⁻¹ s⁻¹
Pnserpin [2]
  kon: 107000 M⁻¹ s⁻¹

## B2
Pnserpin [1]
  kon: 130000 M⁻¹ s⁻¹

## B3
Pnserpin [1]
  kon: 198000 M⁻¹ s⁻¹

## B4
Subtilisin Carlsberg
  stoichiometry of inhibition (SI), incubation at 20 °C; residual protease activity: 10
  stoichiometry of inhibition (SI), incubation at 30 °C; residual protease activity: 8.76
  stoichiometry of inhibition (SI), incubation at 40 °C; residual protease activity: 6.95
  stoichiometry of inhibition (SI), incubation at 50 °C; residual protease activity: 5.34
  stoichiometry of inhibition (SI), incubation at 60 °C; residual protease activity: 3.97
  stoichiometry of inhibition (SI), incubation at 70 °C; residual protease activity: 2.67
[3]
  stoichiometry of inhibition (SI), incubation at 20 °C; residual protease activity: 10.2
  stoichiometry of inhibition (SI), incubation at 30 °C; residual protease activity: 6.14
  stoichiometry of inhibition (SI), incubation at 40 °C; residual protease activity: 5.16
  stoichiometry of inhibition (SI), incubation at 50 °C; residual protease activity: 2.53
Bovine plasma thrombin
  stoichiometry of inhibition (SI), incubation at 20 °C; residual protease activity: 21.1
  stoichiometry of inhibition (SI), incubation at 30 °C; residual protease activity: 15.2
  stoichiometry of inhibition (SI), incubation at 40 °C; residual protease activity: 12.2
  stoichiometry of inhibition (SI), incubation at 50 °C; residual protease activity: 9.31
[4]
  stoichiometry of inhibition (SI), incubation at 20 °C; residual protease activity: 32.7
  stoichiometry of inhibition (SI), incubation at 40 °C; residual protease activity: 23.9
  stoichiometry of inhibition (SI), incubation at 60 °C; residual protease activity: 19.8
  stoichiometry of inhibition (SI), incubation at 80 °C; residual protease activity: 11.3
  stoichiometry of inhibition (SI), incubation at 100 °C; residual protease activity: 6.82
Proteinase k
  stoichiometry of inhibition (SI), incubation at 20 °C; residual protease activity: 9.99
  stoichiometry of inhibition (SI), incubation at 30 °C; residual protease activity: 7.39
  stoichiometry of inhibition (SI), incubation at 40 °C; residual protease activity: 5.99
  stoichiometry of inhibition (SI), incubation at 50 °C; residual protease activity: 4.69
  stoichiometry of inhibition (SI), incubation at 60 °C; residual protease activity: 2.75
  stoichiometry of inhibition (SI), incubation at 70 °C; residual protease activity: 2.28
[5]
  stoichiometry of inhibition (SI), incubation at 20 °C; residual protease activity: 10.1
  stoichiometry of inhibition (SI), incubation at 30 °C; residual protease activity: 9.33
  stoichiometry of inhibition (SI), incubation at 40 °C; residual protease activity: 7.9
  stoichiometry of inhibition (SI), incubation at 50 °C; residual protease activity: 7.41
  stoichiometry of inhibition (SI), incubation at 60 °C; residual protease activity: 4.84
  stoichiometry of inhibition (SI), incubation at 70 °C; residual protease activity: 2.74
